According to patent publication US6486303 (UNIVERSITY OF MEDICINE AND DENTISTRY OF NEW JERSEY, dated 2002):

Target: T1, rat LH receptor (rat, UniProt P16235 27-700)
T1 construct: whole, on cells; also called LH receptors
Assay: not described

T1 sequence (P16235 27-700): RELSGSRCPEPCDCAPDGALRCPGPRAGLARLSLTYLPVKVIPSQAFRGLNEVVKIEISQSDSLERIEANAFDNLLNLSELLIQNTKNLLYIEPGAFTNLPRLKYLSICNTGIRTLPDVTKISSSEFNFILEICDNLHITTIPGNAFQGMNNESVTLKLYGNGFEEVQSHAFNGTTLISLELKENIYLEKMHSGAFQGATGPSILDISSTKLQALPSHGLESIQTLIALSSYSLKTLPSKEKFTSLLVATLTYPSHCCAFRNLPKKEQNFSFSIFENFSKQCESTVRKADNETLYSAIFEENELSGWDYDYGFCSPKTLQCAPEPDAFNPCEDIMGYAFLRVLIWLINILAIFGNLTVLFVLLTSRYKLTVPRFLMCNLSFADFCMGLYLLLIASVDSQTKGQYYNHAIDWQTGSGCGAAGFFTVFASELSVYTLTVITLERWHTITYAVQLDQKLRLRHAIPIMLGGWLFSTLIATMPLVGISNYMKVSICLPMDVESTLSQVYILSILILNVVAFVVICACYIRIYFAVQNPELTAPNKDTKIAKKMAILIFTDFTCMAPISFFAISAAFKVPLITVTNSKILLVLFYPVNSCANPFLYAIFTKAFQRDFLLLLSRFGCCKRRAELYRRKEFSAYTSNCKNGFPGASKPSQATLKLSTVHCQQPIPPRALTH

B1: Fos-αδ52 + Jun-hCGβ′ heterodimer (ligand)
alpha: not shown
beta: SCGGRIARLEEKVKTLKAQNSELASTANMLREQVAQLKQKVMGLRPRCRPINATLAVEKEGCPVCITVNTTICAGYCPTMTRVLQGVLPALPQVVCNYRDVRFESIRLPGCPRGVNPVVSYAVALSCQCALCRRSTTDCGGPKDHPLTCDDPRFQDSSSSKAPPPSLPSPSRLPGPSDTPILPQ
modifications: The Cys of the N-terminal SCGG in each chain is meant to form an intersubunit disulfide.
notes: Secreted from co-transfected COS-7 cells; also called Fos-Jun hCGαδ2; copies: 1 + 1
- binding result: binds
